In this test the target is Vta1^VSL (S. cerevisiae, UniProt Q06263 1-330). The experiment in a line: cryo-EM structure. Conditions: both partners purified.

Where no end group is shown, it is not given here.

As a reminder, the stoichiometry N is the number of molecules, sites or subunits per partner or assembly.

B1: Vta1^VSL (domain or fragment)
chain: SYTKDELTKIMDRASKIEQIQKLAKYAISALNYEDLPTAKDELTKALDLLNSI
modifications: also: homodimer
In the case of B1, the “stoichiometry N” value is 2.

These data come from publication PMC5413351, “Structural basis of protein translocation by the Vps4-Vta1 AAA ATPase” (eLife, 2017).
